{
  "source": "patent US20240207432A1",
  "about": "(BIOSION, published 2024)",
  "key": {"human TROP2-his protein [1]": {"molecular_target": "T1, human TROP2-his protein (human, UniProt P09758 27-274)", "T1 construct": "Biotin-labelled in the ELISAs, unlabelled analyte in Biacore; also called biotin-labeled human TROP2-his protein; biotin human Trop2-his", "T1 sequence": "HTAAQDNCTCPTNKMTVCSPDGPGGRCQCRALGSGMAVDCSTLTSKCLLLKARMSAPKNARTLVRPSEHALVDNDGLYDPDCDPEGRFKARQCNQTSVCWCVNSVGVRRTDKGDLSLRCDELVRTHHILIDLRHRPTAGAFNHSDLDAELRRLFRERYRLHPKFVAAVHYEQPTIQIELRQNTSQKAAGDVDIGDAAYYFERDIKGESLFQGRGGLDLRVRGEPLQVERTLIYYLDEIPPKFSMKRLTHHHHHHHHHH", "assay": "competitive ELISA: mouse A1E4F7D4 coated at 2 ug/mL, antibody premixed with biotin human TROP2-his; blocked: binding of TROP2-his to coated A1E4F7D4; no lower plateau reached at 80 nM", "protocol": "(§1) The mouse anti-TROP2 antibodies were tested for epitope binding in a competitive ELISA assay. […] ELISA plates were washed once with wash buffer (PBS+0.05% v/v Tween-20, PBST) and then blocked with 200 μl blocking buffer (5% w/v non-fatty milk in PBST) for 2 hours at 37° C. While blocking, the anti-TROP2 antibodies or controls were diluted with biotin labeled human TROP2-his protein (SEQ ID NO: 67, 34 ng/mL in 2.5% wA non-fatty milk in PBST), starting at 80 nM with a 5-fold serial dilution, and incubated at room temperature for 40 minutes. After plate washing for 4 times, the antibody/TROP2-his protein mixtures were added to the antibody coated plates, 100 μl per well. After incubation at 37° C. for 40 minutes, plates were washed 4 times again using wash buffer. Then the plates were added and incubated with 100 μl Peroxidase Streptavidin (1:10000 dilution in PBST buffer. Jackson Immunoresearch, Cat #016-030-084) for 40 minutes at 37° C. Plates were washed again using wash buffer. Finally, TMB was added and the reaction was stopped using 1M H₂SO₄. The absorbance of each well was read on a microplate reader using dual wavelength mode with 450 nm for TMB and 630 nm as the reference wavelength, and the OD (450-630) values were plotted against antibody concentration. Data was analyzed using Graphpad Prism software and IC₅₀ values were reported."}, "human TROP2-his protein [2]": {"molecular_target": "T1, human TROP2-his protein", "assay": "competitive ELISA: mouse A1E4F7D4 coated at 2 ug/mL, antibody premixed with biotin human TROP2-his; blocked: binding of TROP2-his to coated A1E4F7D4 (self-competition)", "protocol": "as §1"}, "[3]": {"molecular_target": "T2, cynomolgus TROP2-his protein (cynomolgus monkey, UniProt P09758 27-272 (human entry), limits assumed)", "T2 construct": "no cleavage site is stated; also called Cynomolgus monkey TROP2-his protein; monkey TROP2", "T2 chain": "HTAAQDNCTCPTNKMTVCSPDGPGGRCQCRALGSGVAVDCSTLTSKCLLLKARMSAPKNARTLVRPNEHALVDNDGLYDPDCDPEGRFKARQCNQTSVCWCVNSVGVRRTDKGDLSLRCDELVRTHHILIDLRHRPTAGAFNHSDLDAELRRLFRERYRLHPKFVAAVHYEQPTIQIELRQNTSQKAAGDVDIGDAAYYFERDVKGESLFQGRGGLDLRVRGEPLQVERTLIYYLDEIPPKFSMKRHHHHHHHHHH", "assay": "SPR Biacore, antibody captured on chip, TROP2-his analyte"}, "human TROP2-his protein [4]": {"molecular_target": "T1, human TROP2-his protein", "assay": "SPR Biacore, antibody captured on chip, TROP2-his analyte"}, "human TROP2-his protein [5]": {"molecular_target": "T1, human TROP2-his protein", "assay": "competitive ELISA: mouse A1E11A12D1 coated at 2 ug/mL, antibody premixed with biotin human TROP2-his; blocked: binding of TROP2-his to coated A1E11A12D1", "protocol": "as §1"}, "human TROP2-his protein [6]": {"molecular_target": "T1, human TROP2-his protein", "assay": "capture ELISA, captured antibody, biotin human TROP2-his in solution, OD(450-630)", "protocol": "Plates were washed once with wash buffer (PBS+0.05% v/v Tween-20, PBST) and then blocked with 200 μl/well blocking buffer (5% w/v non-fatty milk in PBST) for 2 hours at 37° C. […] Plates containing captured anti-TROP2 antibodies were incubated with biotin-labeled human TROP2-his protein (prepared in house, SEQ ID NO: 67, 56.7 ng/mL in 2.5% w/v non-fatty milk in PBST, 100 μl/well) for 40 minutes at 37° C., washed 4 times, and incubated with streptavidin conjugated HRP (1:10000 dilution in PBST, Jackson Immuno Research, Cat #016-030-084, 100 μl/well) for 40 minutes at 37° C. After a final wash, plates were incubated with 100 μl/well ELISA substrate TMB (Innoreagents, Cat #TMB-S-002) at room temperature. The reaction was stopped in 3-10 minutes at room temperature with 50 μl/well 1M H₂SO₄, and the absorbance of each well was read on a microplate reader using dual wavelength mode with 450 nm for TMB and 630 nm as the reference wavelength. The OD (450-630) values were plotted against antibody concentration. Data was analyzed using Graphpad Prism software and EC₅₀ values were reported."}, "[7]": {"molecular_target": "T2, cynomolgus TROP2-his protein", "assay": "indirect ELISA, cynomolgus TROP2-his coated, OD(450-630)", "protocol": "The anti-TROP2 antibodies of the disclosure were tested for their cross-reaction with cynomolgus TROP2 proteins. Briefly, 96-well micro plates were coated with 100 μl 2 μg/ml cynomolgus TROP2-his proteins (prepared in-house with SEQ ID NO: 70) in carbonate/bicarbonate buffer (pH 9.6) overnight at 4° C. ELISA plates were washed once with wash buffer (PBS+0.05% v/v Tween-20, PBST) and then blocked with 200 μl/well blocking buffer (5% w/v non-fatty milk in PBST) for 2 hours at 37° C. […] After a final wash, plates were incubated with 100 μl/well TMB (Innoreagents) at room temperature. The reaction was stopped 3-10 minutes later at room temperature with 50 μl/well 1M H₂SO₄, and the absorbance of each well was read on a microplate reader using dual wavelength mode with 450 nm for TMB and 630 nm as the reference wavelength. The OD (450-630) values were plotted against antibody concentration. Data was analyzed using Graphpad Prism software and EC₅₀ values were reported."}},
  "data": [
    {"binder": "mouse antibody A1H3C5H8E12 (antibody, V domains shown, Mouse monoclonal IgG purified from hybridoma supernatant) VH: QVQLQQSGAELVRPGTSVKMSCKAAGYTFTNYWIDWVKQRPGHGLEWIGNIFPGGFYTNYNEKFKGKATLTADTSSSTAYMQLSSLTSEDSAIYYCARGGVFDYWGQGTTLTVSS VL: DILLTQSPAILSVSPGERVSFSCRASQSIGTSIHWYQQRTNGSPRLLIKYASESISGIPSRFSGSGSGTDFTLSINSVESEDIADYYCQQSNSWPYTFGGGTKLEIK", "values": [
      {"measurement": "IC50", "setting": "human TROP2-his protein [1]", "value": 4.09, "unit": "nM"}
    ]},
    {"binder": "mouse antibody A1E4F7D4 (antibody, V domains shown, Mouse monoclonal IgG purified from hybridoma supernatant; also called Mouse A1E4F7D4) VH: QVQLQQSGAELAKPGTSVKMSCEASGYSFTTHWIHWMKQRPGQGLEWIGTIFPSNAYAVYNQKFRDRAIMTADRSSTTAYIQLTGLTSEDSAVYYCARASYFDYWGQGTTLTVSS VL: DILLTQSPATLSVSPGERVTFSCRASQNIGTSIHWFQQRTTGSPRLLIKYASESISGIPSRFSGSGSGTDFTLHINSVESEDIAHYYCQHSHSWPFTFGSGTKLEIQ", "values": [
      {"measurement": "IC50", "setting": "human TROP2-his protein [2]", "value": 0.0675, "unit": "nM"},
      {"measurement": "Kd", "setting": "[3]", "value": 0.0489, "unit": "nM"},
      {"measurement": "koff", "setting": "[3]", "value": "4.54e-05", "unit": "s⁻¹"},
      {"measurement": "kon", "setting": "[3]", "value": 930000, "unit": "M⁻¹ s⁻¹"},
      {"measurement": "Kd", "setting": "human TROP2-his protein [4]", "value": 0.0554, "unit": "nM"},
      {"measurement": "koff", "setting": "human TROP2-his protein [4]", "value": "4.7e-05", "unit": "s⁻¹"},
      {"measurement": "kon", "setting": "human TROP2-his protein [4]", "value": 849000, "unit": "M⁻¹ s⁻¹"},
      {"measurement": "IC50", "setting": "human TROP2-his protein [5]", "value": 0.584, "unit": "nM"}
    ]},
    {"binder": "benchmark (in house prepared sacituzumab) (antibody, human IgG1, kappa, V domains shown, also called BM; BM1) VH: SVQLQQSGSELKKPGASVKVSCKASGYTFTNYGMNWVKQAPGQGLKWMGWINTYTGEPTYTDDFKGRFAFSLDTSVSTAYLQISSLKADDTAVYFCARGGFGSSYWYFDVWGQGSLVTVSS VL: DIQLTQSPSSLSASVGDRVSITCKASQDVSIAVAWYQQKPGKAPKLLIYSASYRYTGVPDRFSGSGSGTDFTLTISSLQPEDFAVYYCQQHYITPLTFGAGTKVEIKR", "values": [
      {"measurement": "EC50", "setting": "human TROP2-his protein [6]", "value": 0.141, "unit": "nM"},
      {"measurement": "EC50", "setting": "[7]", "value": 0.138, "unit": "nM"}
    ]}
  ]
}
